From the supplement of paper PMC9233669
This sample holds only a part of the variants without activity.

Legend:
biotinyl-Phe-oxazolone = test: self-aminoacylation, catalytic enhancement (BFO) (fold over background); higher = more active; k-Seq, kA / k0A0; sequences stand for … in GGGAAUGGAUCCACAUCUACGAAUUC…UUCACUGCAGACUUGACGAAGCUG
Method in brief: (§1)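 Mutagenized RNA pools with a 21-nt variable region (0.43 μM) reacted with each biotinyl-aminoacyl-oxazolone at 2–1250 μM. Reactions ran in 50 μL HEPES/NaCl/KCl/MgCl2/CaCl2 buffer with 5% acetonitrile, pH 6.9–7.0, for 90 minutes at room temperature. Streptavidin-captured RNA was quantified by triplicate qPCR and Illumina sequencing, and per-sequence fraction reacted was fit to a pseudo-first-order model with 1000 bootstraps. Catalytic enhancement is median kA divided by the uncatalyzed rate, the low-activity peak of a bimodal Gaussian fit.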

biotinyl-Met-oxazolone = test: self-aminoacylation, catalytic enhancement (BMO) (fold over background); higher = more active; k-Seq, kA / k0A0; sequences stand for … in GGGAAUGGAUCCACAUCUACGAAUUC…UUCACUGCAGACUUGACGAAGCUG
Method in brief: as §1

biotinyl-Trp-oxazolone = test: self-aminoacylation, catalytic enhancement (BWO) (fold over background); higher = more active; k-Seq, kA / k0A0; sequences stand for … in GGGAAUGGAUCCACAUCUACGAAUUC…UUCACUGCAGACUUGACGAAGCUG
Method in brief: as §1

biotinyl-Val-oxazolone = test: self-aminoacylation, catalytic enhancement (BVO) (fold over background); higher = more active; k-Seq, kA / k0A0; sequences stand for … in GGGAAUGGAUCCACAUCUACGAAUUC…UUCACUGCAGACUUGACGAAGCUG
Method in brief: as §1

biotinyl-Ile-oxazolone = test: self-aminoacylation, catalytic enhancement (BIO) (fold over background); higher = more active; k-Seq, kA / k0A0; sequences stand for … in GGGAAUGGAUCCACAUCUACGAAUUC…UUCACUGCAGACUUGACGAAGCUG
Method in brief: as §1

biotinyl-Leu-oxazolone = test: self-aminoacylation, catalytic enhancement (BLO) (fold over background); higher = more active; k-Seq, kA / k0A0; sequences stand for … in GGGAAUGGAUCCACAUCUACGAAUUC…UUCACUGCAGACUUGACGAAGCUG
Method in brief: as §1

Sequence | self-aminoacylation (biotinyl-Phe-oxazolone) | self-aminoacylation (biotinyl-Met-oxazolone) | self-aminoacylation (biotinyl-Trp-oxazolone) | self-aminoacylation (biotinyl-Val-oxazolone) | self-aminoacylation (biotinyl-Ile-oxazolone) | self-aminoacylation (biotinyl-Leu-oxazolone)
CUAUUUCAAACAGUCGGUCUG [Fam1A.1 aminoacylation ribozyme variant] | 0.588 | 0.859 | 0.682 | 0.8 | 0.827 | 0.843
AUUCACCUAGGUUAUCCGGUG [Fam2.2 aminoacylation ribozyme variant] | 42.3 | 7.05 | 5.66 | 3.77 | 3.8 | 8.66
CCACACUUCAAGCAAUCAGCC [Fam1B.1 aminoacylation ribozyme variant] | 3.01 | 0.884 | 2.26 | 1.72 | 1.04 | 1.51
CUACUUCACACAAUCGGUCUG [Fam1A.1 aminoacylation ribozyme variant] | 0.869 | 0.685 | 0.689 | 0.811 | 0.775 | 0.694
GUACUUCAACCAAUCGGUCUG [Fam1A.1 aminoacylation ribozyme variant] | 16.5 | 1.39 | 15.1 | 1.28 | 1.39 | 1.59
AUUACCCUGGUCCGCGAGUGA [Fam2.1 aminoacylation ribozyme variant] | 53.1 | 10.5 | 11.5 | 6.47 | 6.07 | 11.5
CUACUUCAGAGAAUCGGUCUG [Fam1A.1 aminoacylation ribozyme variant] | 0.895 | 0.951 | 0.7 | 0.806 | 0.846 | 0.853
CCACAGUUCAAGCAAUCGGGC [Fam1B.1 aminoacylation ribozyme variant] | 10 | 2.81 | 3.13 | 2.42 | 2.04 | 2.18
CCACACAUCAAGGAAUCGGUC [Fam1B.1 aminoacylation ribozyme variant] | 0.77 | 0.804 | 0.926 | 0.884 | 1.04 | 1.02
AAGUUUGCUAAUAUUCUCAAG [Fam3.1 aminoacylation ribozyme variant] | 1.04 | 1.17 | 1.48 | 1.18 | 1.1 | 1.15
CCACACUUCAAGAUAUCGGUC [Fam1B.1 aminoacylation ribozyme variant] | 0.633 | 0.624 | 0.657 | 0.795 | 0.774 | 0.736
CCACACUUGACGCAAUCGGUC [Fam1B.1 aminoacylation ribozyme variant] | 1.18 | 1.44 | 1.54 | 1.43 | 1.4 | 1.21
AAGUUUACUAAUAGACGCAAG [Fam3.1 aminoacylation ribozyme variant] | 1.15 | 0.816 | 0.834 | 1.03 | 0.695 | 0.638
CCACACUUCACGCAAACGGUC [Fam1B.1 aminoacylation ribozyme variant] | 0.827 | 0.793 | 0.98 | 0.995 | 0.736 | 0.861
CUCCUUCAAACAUUCGGUCUG [Fam1A.1 aminoacylation ribozyme variant] | 3.15 | 1.31 | 1.66 | 1.32 | 1.24 | 1.05
AUGACCCGGGUCAUCGAGUGA [Fam2.1 aminoacylation ribozyme variant] | 46.3 | 6.73 | 6.53 | 3.55 | 3.9 | 7.47
AUUAACCAAGGUCAUCGGGUG [Fam2.2 aminoacylation ribozyme variant] | 43.2 | 7.25 | 6.8 | 4.19 | 3.81 | 9.4
AAGCUUGCUAAUACUCGCAAG [Fam3.1 aminoacylation ribozyme variant] | 1.31 | 0.693 | 1.98 | 1.26 | 1.5 | 0.856
CUACUUCAAACAAUAGGUGUG [Fam1A.1 aminoacylation ribozyme variant] | 1.38 | 1.22 | 0.781 | 0.975 | 1.07 | 1.25
AUUCUCCUAGGUAAUCGGGUG [Fam2.2 aminoacylation ribozyme variant] | 33.1 | 4.1 | 4.29 | 2.45 | 2.55 | 6.03
AUUCACCAAGGUCUUCGGGUG [Fam2.2 aminoacylation ribozyme variant] | 37.2 | 5.94 | 4.45 | 4.41 | 4.41 | 6.3
AGGUUUGCUAUUAGUCGCAAG [Fam3.1 aminoacylation ribozyme variant] | 3.21 | 1.17 | 1.08 | 1.17 | 1.28 | 1.49
GUUCACCGAGGUCAUCGGGUG [Fam2.2 aminoacylation ribozyme variant] | 55.9 | 6.57 | 7.43 | 4.56 | 4.56 | 8.58
AUUAUCCUGGUCAUAGAGUGA [Fam2.1 aminoacylation ribozyme variant] | 59 | 9.86 | 11.7 | 4.11 | 4.58 | 10.1
AUUAGCCUGGUCAUCGAGCGA [Fam2.1 aminoacylation ribozyme variant] | 2.04 | 2.52 | 4.5 | 2.53 | 2.55 | 2.59
CCACCCUUCAAGCAAUCGGUC [Fam1B.1 aminoacylation ribozyme variant] | 19.9 | 0.936 | 11.3 | 1.32 | 1.05 | 1.16

Sequence | self-aminoacylation (biotinyl-Phe-oxazolone) | self-aminoacylation (biotinyl-Met-oxazolone) | self-aminoacylation (biotinyl-Trp-oxazolone) | self-aminoacylation (biotinyl-Val-oxazolone) | self-aminoacylation (biotinyl-Ile-oxazolone) | self-aminoacylation (biotinyl-Leu-oxazolone)
ACUACCCUGGUCAUCGAGUGA [Fam2.1 aminoacylation ribozyme variant] | 266 | 44.3 | 45.2 | 17.4 | 16.2 | 43.4
AAGUUUGCUAAUAGCCGUAAG [Fam3.1 aminoacylation ribozyme variant] | 18.2 | 1.39 | 7.16 | 1.36 | 1.3 | 0.898
AUUCACCUAGGUCAUCGGGAG [Fam2.2 aminoacylation ribozyme variant] | 1.65 | 1.58 | 1.39 | 1.44 | 1.43 | 1.86
AUAACCCUGUUCAUCGAGUGA [Fam2.1 aminoacylation ribozyme variant] | 12.6 | 3.8 | 4.29 | 2.18 | 2.21 | 3.97
CUUACCCUGAUCAUCGAGUGA [Fam2.1 aminoacylation ribozyme variant] | 16.5 | 7.49 | 9.22 | 3.94 | 3.64 | 7.51
CCACACUUCAAGCUAUCGGUG [Fam1B.1 aminoacylation ribozyme variant] | 33 | 5.19 | 5.5 | 3.77 | 3.88 | 6.48
CUUAACCUGGUCAUCGAGUGA [Fam2.1 aminoacylation ribozyme variant] | 5.1 | 5.64 | 6.88 | 3.11 | 2.9 | 4.95
AUUACCCUGGACAUCGAUUGA [Fam2.1 aminoacylation ribozyme variant] | 0.447 | 0.785 | 0.675 | 0.863 | 0.804 | 0.831
AUGACCCUCGUCAUCGAGUGA [Fam2.1 aminoacylation ribozyme variant] | 14.7 | 3.35 | 3.73 | 2.06 | 2.05 | 3.43
AUGACCCUGGUCAUCGAAUGA [Fam2.1 aminoacylation ribozyme variant] | 6.66 | 1.46 | 1.44 | 1.35 | 1.59 | 2.06
AGUCACCUAGGGCAUCGGGUG [Fam2.2 aminoacylation ribozyme variant] | 34.4 | 3.71 | 6.69 | 3.45 | 4.43 | 4.67
CUUCUUCAAACAAUCGGCCUG [Fam1A.1 aminoacylation ribozyme variant] | 31.1 | 1.72 | 28.5 | 1.48 | 1.34 | 1.88
GCACACUUCAAGCAAUCGGUA [Fam1B.1 aminoacylation ribozyme variant] | 2.95 | 1.98 | 3.53 | 2.5 | 2.84 | 2.26
AUUCACCUAGGUCAUCGGGUA [Fam2.2 aminoacylation ribozyme variant] | 605 | 71.8 | 49.5 | 32 | 37.2 | 101
CCACACUUUAAGGAAUCGGUC [Fam1B.1 aminoacylation ribozyme variant] | 0.557 | 0.717 | 0.644 | 0.826 | 0.862 | 0.725
AAGUUUCCUAAUAGUCGCUAG [Fam3.1 aminoacylation ribozyme variant] | 2.18 | 1.78 | 1.97 | 1.67 | 1.61 | 1.39
AUUACCCUGGUUAUCGAGGGA [Fam2.1 aminoacylation ribozyme variant] | 1.16 | 1.4 | 1.79 | 1.16 | 1.55 | 0.955
CCACCCUUCAAGCUAUCGGUC [Fam1B.1 aminoacylation ribozyme variant] | 0.937 | 0.845 | 1.09 | 1.43 | 1.08 | 1.11
UUUACCCUGCUCAUCGAGUGA [Fam2.1 aminoacylation ribozyme variant] | 8.11 | 2.03 | 3.13 | 1.54 | 1.28 | 2.15
AUUACCCUGGUCAUACAGUGA [Fam2.1 aminoacylation ribozyme variant] | 14.8 | 4.03 | 5.95 | 3.03 | 2.91 | 4.57
CCACACUUCAAGCGAUCAGUC [Fam1B.1 aminoacylation ribozyme variant] | 1.37 | 0.699 | 0.843 | 0.776 | 0.884 | 0.665
CCACCCUUCAAGUAAUCGGUC [Fam1B.1 aminoacylation ribozyme variant] | 7.55 | 1.18 | 7.3 | 1.25 | 1.15 | 1.13
CCACUUCAAACCAUCGGUCUG [Fam1A.1 aminoacylation ribozyme variant] | 1.49 | 0.947 | 1.16 | 1.29 | 1.31 | 1.24
AUUACCCCGAUCAUCGAGUGA [Fam2.1 aminoacylation ribozyme variant] | 27.4 | 7.24 | 7.71 | 3.77 | 3.39 | 7.03
AAGUUUGCUAAUACACGCAAG [Fam3.1 aminoacylation ribozyme variant] | 1.19 | 0.7 | 0.66 | 0.627 | 0.665 | 0.564
